Reference: publication PMC3673938, “Two Distinct Calmodulin Binding Sites in the Third Intracellular Loop and Carboxyl Tail of Angiotensin II (AT1A) Receptor” (PLoS ONE, 2013)
Numbering of substitutions follows the chain as printed. Names may count otherwise.

B1: GST-ATct(297–359): GST fused to the carboxyl terminal tail (amino acids 297 to 359) of the AT1A receptor (protein, UniProt P25095 297-359, looked up, fragment)
chain: LNPLFYGFLGKKFKKYFLQLLKYIPPKAKSHSSLSTKMSTLSYRPSDNMSSSAKKPASCFEVE
modifications: carboxyl tail GST fusion
notes: GST fused to the carboxyl terminal tail (amino acids 297 to 359) of the AT1A receptor
B2: GSTATct(F313A): F313A mutant of GST-ATct(297–359) (protein, UniProt P30556 297-359, looked up, fragment F313A)
chain: B1 chain with K15R, F17A, S33N, M49V, A53T, S58P
modifications: GST fusion

Columns and labels:
[1] = test system: purified bovine brain CaM; assay: GST-fusion protein pull-down with purified bovine brain CaM; type: binding; conditions: 50 pmol GST-fusion protein, 50 pmol purified bovine CaM, 100 mM Tris-HCl pH 7.5; Ca2+ dependent (0.1 mM CaCl2 vs 1 mM EGTA); repeated five times
Procedure: (§1) GST-fusion proteins were expressed in E. coli BL21 strain cells, and purified by affinity chromatography using immobilized glutathione sepharose 4B beads. Proteins were eluted by reduced glutathione in 50 mM Tris-HCl buffer (pH 8.0), and then concentrated with Centricon filters with 3 kDa MW cut-off. The eluted proteins were either used immediately or stored at −80°C for future use. For GST-fusion protein pull-down assays, fusion proteins were incubated with either cell lysates or purified protein(s) at 4°C for 3 hours, following which glutathione-sepharose 4B beads were added and incubation continued at 4°C for 1 hour. The beads were then recovered by brief centrifugation, followed by 4 washes with the corresponding incubation buffer. The fusion proteins and the proteins to which they were bound were then separated by SDS-PAGE, and identified by staining with Coomassie blue or by immunoblot.
(§2) Figure 1 Interactions of the i3 loop and carboxyl tail of the AT1A receptor with CaM. A, Construction of GST-fusion proteins. Upper panel illustrates a schematic structure of the AT1A receptor and constructs of GST-fusion proteins of the i3 loop and carboxyl tail of the receptor. The numbers represent positions of amino acids in the receptor. […]

CaM in rat brain lysates = assay: GST-fusion protein pull-down from rat brain lysates; type: binding; conditions: 50 pmol GST-fusion protein, 500 µg rat brain lysates, 20 mM Tris-HCl, 70 mM NaCl, pH 7.5; Ca2+ dependent; repeated five times
Procedure: as §1, §2

G protein βγ subunits = assay: GST-fusion protein pull-down of G protein βγ subunits, with or without CaM; type: binding, bovine; conditions: 2 pmol GST-fusion protein, 2 pmol Gβγ, CaM pre-incubated 30 minutes, 20 mM Tris-HCl, 70 mM NaCl, 0.1 mM CaCl2, pH 7.5; 4 or 5 experiments
Procedure: as §1
Figure 7 Effect of CaM on G protein βγ subunit interaction with wild ATi3 or ATct. A. Interaction of G protein βγ subunits and ATi3 or ATct. 50 pmol of GST-ATi3(213–242) or GST-ATct(297–359) were incubated with different amounts of G protein Gβγ subunits in a buffer containing 20 mM Tris-HCl and 70 mM NaCl (pH 7.5). Interactions were assessed by GST-fusion protein pull-down assay, and blots were probed with a specific antibody against Gβ subunits (upper panel). 1 pmol of Gβγ subunit was interacted with different amounts of GST-ATi3(213–242) and GST-ATct(297–359). Interaction was assessed by immunoblot against Gβ subunits (lower panel). B. CaM inhibits the interaction between G protein Gβγ subunits and ATi3 or ATct. 2 pmol of GST-ATi3(213–242) or GST-ATct(297–359) were incubated with different concentrations of pure bovine brain CaM for 30 minutes in a buffer (20 mM Tris-HCl and 70 mM NaCl with 0.1 mM CaCl2, pH 7.5) following which 2 pmol of Gβγ subunits were added and incubated for 1 hour. GST-fusion proteins and their interacting proteins were pulled down by gluthathione-sepharose 4B beads, and subjected to immunoblot. Blots were probed with a specific antibody against Gβ subunits. The summary graph represents means ± S.E. from four independent experiments. C. Effects of CaM on the interactions between G protein βγ subunits and mutated ATi3 and ATct. The method is same as the described in the Figure 7B, except that we used mutated GST-fusion proteins, GST-ATi3(213–242)W219A, ATct(297–359)F309A, and ATct(297–359)F313A. The summary graph represents mean ± S.E. from 4 or 5 independent experiments.

Molecule | interaction with purified CaM (pull-down, in words) [1] | association with CaM from rat brain lysates (pull-down, in words) (CaM in rat brain lysates) | Gβγ binding to GST-fusion protein in the presence of 2 pmol of CaM (G protein βγ subunits) [%] | Gβγ binding to GST-fusion protein in the presence of 10 pmol of CaM (G protein βγ subunits) [%]
B1 | associated | associated | 73 | 34
B2 | – | – | 99 | 83
